From article PMC10558642 (2023)

B1: recombinant GPX4 protein (SPR and MST) (natural protein)
chain: MSLGRLCRLLKPALLCGALAAPGLAGTMCASRDDWRCARSMHEFSAKDIDGHMVNLDKYRGFVCIVTNVASQUGKTEVNYTQLVDLHARYAECGLRILAFPCNQFGKQEPGSNEEIKEFAAGYNVKFDMFSKICVNGDDAHPLWKWMKIQPKGKGILGNAIKWNFTKFLIDKNGCVVKRYGPMEEPLVIEKDLPHYF
B2: His-OTUD5 (natural protein)
chain: MTILPKKKPPPPDADPANEPPPPGPMPPAPRRGGGVGVGGGGTGVGGGDRDRDSGVVGARPRASPPPQGPLPGPPGALHRWALAVPPGAVAGPRPQQASPPPCGGPGGPGGGPGDALGAAAAGVGAAGVVVGVGGAVGVGGCCSGPGHSKRRRQAPGVGAVGGGSPEREEVGAGYNSEDEYEAAAARIEAMDPATVEQQEHWFEKALRDKKGFIIKQMKEDGACLFRAVADQVYGDQDMHEVVRKHCMDYLMKNADYFSNYVTEDFTTYINRKRKNNCHGNHIEMQAMAEMYNRPVEVYQYSTGTSAVEPINTFHGIHQNEDEPIRVSYHRNIHYNSVVNPNKATIGVGLGLPSFKPGFAEQSLMKNAIKTSEESWIEQQMLEDKKRATDWEATNEAIEEQVARESYLQWLRDQEKQARQVRGPSQPRKASATCSSATAAASSGLEEWTSRSPRQRSSASSPEHPELHAELGMKPPSPGTVLALAKPPSPCAPGTSSQFSAGADRATSPLVSLYPALECRALIQQMSPSAFGLNDWDDDEILASVLAVSQQEYLDSMKKNKVHRDPPPDKS
modifications: Red-tris-NTA dye on the His tag (MST only)

Experiments:
His-OTUD5 = target: B2; test: MST
[1] = target: B1; test: SPR

Binder	Kd (His-OTUD5) [nM]	Kd [1] [nM]
B1	230	
B2		720
